Tests used:
[1] = target: human P-cadherin, cell surface-expressed on NCI-H1650 adenocarcinoma cells (Homo sapiens (Human).) (UniProt P22223)
[2] = target: human P-cadherin expressed on the surface of CHO cells (Homo sapiens) (UniProt P22223); test: KinExA; human P-cadherin expressed on the surface of CHO cells; PBS pH 7.4 with MgCl2, CaCl2 and 1 mg/mL BSA; 4 °C for 2 h
[3] = target: soluble human CD3 epsilon-delta heterodimer (Homo sapiens (Human).) (UniProt P07766); test: SPR; Biacore 3000 and T-200; P-cadherin or human CD3 protein immobilised on CM5 by amine coupling (~75–300 RU); DART injected in two-fold series 100 to 6.25 nM; TBS-P+ (10 mM Tris pH 7.4, 150 mM NaCl, 2 mM CaCl2, 0.1 mg/mL BSA, 0.05% P20); global 1:1 Langmuir fit
[4] = target: human P-cadherin-Fc (recombinant human P-cadherin ECD protein) (Homo sapiens (Human).) (UniProt P22223); test: as above
[5] = target: cynomolgus monkey P-cadherin extracellular domain (ECD) (Macaca fascicularis); test: as above
[6] = target: cynomolgus monkey P-cadherin extracellular domain (ECD) (Macaca fascicularis); test: KinExA; recombinant cynomolgus monkey P-cadherin; PBS pH 7.4 with MgCl2, CaCl2 and 1 mg/mL BSA; PMMA beads; 4 °C for 2 h
[7] = target: soluble human CD3 epsilon-delta heterodimer (Homo sapiens (Human).) (UniProt P07766); test: ELISA; cadherin-Fc, P-cadherin His or CD3 epsilon-delta protein coated at 1 or 2 µg/mL; sample in 3% milk/PBS + Ca2+ and Mg2+, 1 h at room temperature
[8] = target: human P-cadherin-Fc (recombinant human P-cadherin ECD protein) (Homo sapiens (Human).) (UniProt P22223); test: as above
[9] = target: human P-cadherin, cell surface-expressed on NCI-H1650 adenocarcinoma cells (Homo sapiens (Human).) (UniProt P22223); test: ELISA; cell binding ELISA on a confluent monolayer of NCI-H1650 cells; DART in 3% milk/PBS + Ca2+ and Mg2+, 1 h at room temperature; HRP-labelled secondary antibody

UniProt P07766, sequence (P07766 23-126, stated change not applied, chain 1 of 2): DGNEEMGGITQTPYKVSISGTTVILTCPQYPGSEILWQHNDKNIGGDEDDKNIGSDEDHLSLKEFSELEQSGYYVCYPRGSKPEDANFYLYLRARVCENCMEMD
UniProt P07766, sequence (P04234 22-105, stated change not applied, chain 2 of 2, further chain): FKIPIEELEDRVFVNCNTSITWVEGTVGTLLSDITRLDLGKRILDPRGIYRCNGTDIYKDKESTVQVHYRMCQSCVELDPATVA

## PF-06671008 (anti-P-cadherin LP-DART #153) (bispecific antibody)
[1]
  redirected killing of DU145 cells by human PBMCs (LDH release, 24 h, E:T 30:1), EC50: 3.1 pM
  redirected killing of HCT-116 cells by human PBMCs (LDH release, 24 h, E:T 30:1), EC50: 123 pM
[2]
  Kd: 176 pM
[3]
  Kd: 11500 pM
[4]
  Kd: > 1000 pM
[5]
  Kd: 521 pM
  koff: 0.000205 s⁻¹
  kon: 437000 M⁻¹ s⁻¹
[6]
  Kd: 352 pM
[7]
  EC50: 4370 pM
[8]
  EC50: 920 pM
[9]
  EC50: 593 pM

Reference: PMC6698862
